± gives the standard deviation.
Test: protein stability index of a GFP-peptide fusion (GPS, HEK-293T) (PSI 1-6); higher = more stable
Details: c terminus: a fixed tail appended
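Further: 24-mer peptide tiles fused after GFP, lentivirally expressed, FACS-sorted into six equal bins by GFP/DsRed ratio, decoded by Illumina sequencing, PSI is the read-weighted mean bin number.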

Row | Sequence | protein stability index (treatment: DMSO) | protein stability index (treatment: MLN4924 1 uM, 8 h)
1 | IQDRLSNTLQTYIRCRHPPPGSHL [VDR] | 2.73 ± 0.17 | 2.74 ± 0.22
2 | HSMKPHPAITATLLDFMCRIIPNF [INTS3] | 2.96 ± 0.45 | 3 ± 0.88
3 | PVRDECEERNRFTETREEDVTDEH [FAM9B] | 5.44 ± 0.21 | 5.66 ± 0.24
4 | MDGSGEQPRGGVSSRIEQGEWGGR | 4.58 ± 0.43 | 4.58 ± 0.17
5 | LMDVTGGPFDLMSRRVIAANNRIL [IMPA1] | 2.75 ± 0.17 | 2.69 ± 0.2
6 | AALSATGPRFLAYFGSFATVGLLW [TMEM175] | 3.01 ± 0.25 | 3.18 ± 0.72
7 | PQARMREENMERIGEEVRQLMEKL [BEX1] | 4.51 ± 0.33 | 4.52 ± 0.23
8 | LSETADPFFVLNSDVICDFPFQAM [GMPPB] | 2.44 ± 0.26 | 2.6 ± 0.35
9 | EKESTELRAEEIETRVTSGSMEAL [PPFIA4] | 5.53 ± 0.17 | 5.45 ± 0.27
10 | IQLKSVADGQESTPPTPAPTSGIV [WASL] | 4.68 ± 0.21 | 4.84 ± 0.16
11 | VRDQGPSIPLTPGDTPIRKKEELL [FBF1] | 5.26 ± 0.21 | 5.33 ± 0.12
12 | REKTNICYLSFPDSNSGCLGDTQF [DENND6A] | 2.88 ± 0.063 | 2.9 ± 0.25
13 | EDGPGKEEAPELDEAELDYLMDVL [SERTAD1] | 5.08 ± 0.12 | 5.01 ± 0.21
14 | SLEHVQLFDLMRRMLEFDPAQRIT [CLK3] | 2.31 ± 0.29 | 2.07 ± 0.36
15 | TRSHLWEAAQVVPDGLGLDEAREE [TRIB3] | 5.13 ± 0.24 | 5.13 ± 0.28
16 | EKTNGATPLLMAARYGHLDMVEFL [FEM1C] | 2.91 ± 0.2 | 3.05 ± 0.37
17 | GPALAGEPAGSLRELGVWRSLLRL [C2CD2L] | 2.66 ± 0.23 | 2.56 ± 0.03
18 | PQLASLCLDTIDKSTMDAISAEGF [BTBD1] | 3.98 ± 0.16 | 3.99 ± 0.057
19 | RGVPLLEWETEVEMDKLRASDIME [CLCN6] | 4.2 ± 0.043 | 4.3 ± 0.13
20 | KNHEEEMLALRGQTGGDVNVEMDA [KRT16] | 5.46 ± 0.17 | 5.6 ± 0.22
21 | ARLFDEPQLASLCLDTIDKSTMDA [BTBD1] | 4.35 ± 0.43 | 4.53 ± 0.17
22 | TQYFVQENYLEYRQVPGSDPACYE [MAGEA6] | 3.34 ± 0.29 | 3.59 ± 0.38

Row | Sequence | protein stability index (treatment: DMSO) | protein stability index (treatment: MLN4924 1 uM, 8 h)
23 | SFFFPPVNLPISFFRKLLDCCQVS [NLN] | 2.23 ± 0.77 | 2.25 ± 0.5
24 | PISQEKIESERALISQCGKPVVNV [DUSP5] | 4.04 ± 0.55 | 3.91 ± 0.23
25 | RLVHTTAIEHFQPNADLLFSDPSQ [FCHO1] | 3.78 ± 0.15 | 3.87 ± 0.24
26 | DRNTKRDVTLEASRESSKPRAVLK [PPP2R2C] | 4.62 ± 0.23 | 4.79 ± 0.17
27 | KSFSMAKGLNARMMRGLSYSLTTS [RAB40A] | 2.35 ± 0.13 | 2.56 ± 0.25
28 | SQDEPIALDKQHSRDSAAITHSTY [NOL4L] | 5.01 ± 0.22 | 5.08 ± 0.16
29 | AGDGDTSNFETYPENDWDTAAPVP [PRKX] | 5.33 ± 0.33 | 5.14 ± 0.32
30 | EEKPQENKTWREQYLRLPDAPEQR [ELOA2] | 5.18 ± 0.28 | 4.88 ± 0.11
31 | AGIGRTGTFCSLDICLAQLEELGT [PTPN9] | 2.23 ± 0.24 | 2.62 ± 0.64
32 | LEDMGQPPAEEAEQPGALAREFLA [FKBP8] | 5.15 ± 0.19 | 5.38 ± 0.2
33 | MHTNYLSACSFTNSDMQILTASGD [GNB5] | 2.99 ± 0.22 | 3.27 ± 0.26
34 | WWTNWVIPAISAVAVALMYRLYMA [CYB5A] | 3.22 ± 0.15 | 3.29 ± 0.36
35 | TLDKRWRVRKEAMMGLAQIYKKYA [PDS5B] | 2.23 ± 0.21 | 2 ± 0.14
36 | YSFISLFIYMVLSLFIALITGAYD [MCOLN1] | 3.14 ± 0.48 | 3.22 ± 0.45
37 | GSNPSSSNSSQDSLHKGAKRKGIK [PPFIA4] | 5.14 ± 0.69 | 5.53 ± 0.35
38 | LGNVLFSPICLSTSLSLAQVGAKG [SERPINB5] | 2.48 ± 0.2 | 2.12 ± 0.23
39 | ALKRQLPFRGDEGIFEESFIEERR [SNX12] | 3.8 ± 0.16 | 4.15 ± 0.31
40 | SAVSTPSPVTRTRSLSACNKRVGM [DLC1] | 4.36 ± 0.19 | 4.38 ± 0.16
41 | NSSNSDIVHVEKEEVPEGMEEAAV [BCL2L13] | 5.6 ± 0.14 | 5.61 ± 0.28
42 | DLRINLWNFEITNQSFNIVDIKPA [PPP2R2B] | 2.47 ± 0.86 | 2.4 ± 0.07
43 | GSVLRIQPLRTPRDEAIYECVASN [PTPRD] | 3.24 ± 0.12 | 3.17 ± 0.43
44 | ERDFPCPVCRKTSRYRSLRPNRQL [TRIM39] | 2.93 ± 0.46 | 3.23 ± 0.45

Row | Sequence | protein stability index (treatment: DMSO) | protein stability index (treatment: MLN4924 1 uM, 8 h)
45 | KAGQPESRALALFDIQKIMQEKNP [ZNF8] | 4.06 ± 0.36 | 4.26 ± 0.12
46 | VSSDGTLKYMEVTLRPTDSQSHCY [PCDHGC5] | 2.8 ± 0.38 | 2.65 ± 0.23
47 | VGKVEELIESEAPPKASEQETAKE [C18orf25] | 5.53 ± 0.28 | 5.6 ± 0.27
48 | DVQLGDIILTATDGLFDNMPDYMI [PPTC7] | 2.58 ± 0.33 | 2.62 ± 0.42
49 | EDHGLVTCSADHLIILWKNGERES [WDR41] | 3.27 ± 0.28 | 2.74 ± 0.21
50 | LINTIRVVCASYEDYGHWLLCLRA [PLEKHN1] | 2.76 ± 0.89 | 2.43 ± 0.41
51 | WAISSWFRRGPAPQDQAGPGGAPR [CLPTM1] | 2.75 ± 0.47 | 3.21 ± 0.48
52 | LLAAQVQLQCSPAELQAELLHSQA [FBF1] | 2.56 ± 0.26 | 2.42 ± 0.45
53 | TQRLWDFTQSGPIVSRATGRCLEV [GALNT9] | 2.81 ± 0.43 | 3.02 ± 0.22
54 | LTERLKVLEAKMTMLTVIEQPVPP [EMID1] | 3.09 ± 0.46 | 3.32 ± 0.16
55 | ISLTCVSVAFAVAWFLPMPQKSLF [SLC19A2] | 3.15 ± 0.18 | 3.19 ± 0.17
56 | SLGLDHCHSFISGTAPLNQETAEF [ACSBG2] | 4.18 ± 0.21 | 4.06 ± 0.16
57 | QGQPAMEGHCVIQVDVGDVNDNAP [PCDHGC5] | 4.97 ± 0.5 | 4.78 ± 0.075
58 | LGVAQRSLPLQDELAFAEDLVLDE [ESRRA] | 3.38 ± 0.65 | 3.93 ± 0.71
59 | IMNDLSNRVWSISQEPDPVQRLQA [TRIM14] | 3.16 ± 0.31 | 3.16 ± 0.17
60 | AFMNQEITKAFHVRKANRIKECLS [RHOBTB1] | 2.41 ± 0.18 | 2.53 ± 0.33
61 | TEISFILGQEFDEVTADDRKVKST [FABP4] | 4.24 ± 0.43 | 4.43 ± 0.17
62 | AAALDYEADGSTNNGIFQINSRRW [SPACA3] | 3.64 ± 0.46 | 3.76 ± 0.35
63 | HGVRAKVQPQARKKEMEMRQLQRG [CPN1] | 4.38 ± 0.38 | 4.5 ± 0.25
64 | LHSLPGVSLSLENRELWKEFSSVG [TBX6] | 2.73 ± 0.19 | 2.83 ± 0.37
65 | WALGCVLYELASLKRAFEAANLPA [NEK8] | 2.99 ± 0.3 | 2.9 ± 0.46
